This assay concerns the target Nluc2-H2AX (N-terminal fragment of firefly luciferase 2 fused to the N-terminus of histone H2AX) (UniProt P16104). Kind of assay: split reporter.

On to “MDC1 BRCT domain fused to the C-terminal fragment of firefly luciferase 2 (Cluc) (domain or fragment)”, for which the reporter activity, fold above background (within 3 hour of 6 Gy x-rays) worked out at 5 fold.

For the origin of these results see PMC3117017.
